What all share (test): BLI
In assay [1] the target is VIC16 REFORMab SDIEALGA (G236A/S239D/A330L/I332E) (mouse | human).
Assay [2] addresses VIC16 REFORMab EFTEA (G236A/S267E/H268F/S324T/I332E) (mouse | human).
For assay [3], the target named is VIC16 REFORMab KWES (printed K236W/E333S) (mouse | human).
Assay [4] deals with VIC16 REFORMab LALA (L234A/L235A) (mouse | human).

B1: recombinant murine FcγRIV (receptor)
chain: GLQKAVVNLDPKWVRVLEEDSVTLRCQGTFSPEDNSIKWFHNESLIPHQDANYVIQSARVKDSGMYRCQTALSTISDPVQLEVHMGWLLLQTTKWLFQEGDPIHLRCHSWQNRPVRKVTYLQNGKGKKYFHENSELLIPKATHNDSGSYFCRGLIGHNNKSSASFRISLGDPGSPSMFPPWHQ
modifications: soluble ectodomain by convention (UniProt topology); tag not stated
Regarding B1, the dissociation constant Kd (as a rule, a measure of binding affinity in units of concentration) came to 1 nM in assay [1], 120 nM in assay [2] and 160 nM in assay [3].

B2: recombinant murine FcγRIII (receptor)
chain: ALPKAVVKLDPPWIQVLKEDMVTLMCEGTHNPGNSSTQWFHNGRSIRSQVQASYTFKATVNDSGEYRCQMEQTRLSDPVDLGVISDWLLLQTPQRVFLEGETITLRCHSWRNKLLNRISFFHNEKSVRYHHYKSNFSIPKANHSHSGDYYCKGSLGSTQHQSKPVTITVQDPATTSSISLVWYHT
modifications: soluble ectodomain by convention (UniProt topology); tag not stated
On to B2, for which the equilibrium dissociation constant (Kd) in assay [4] is 820000 nM; in assay [1] it was 10 nM; in assay [2], 1100 nM; in assay [3], 20 nM.

B3: recombinant murine FcγRIIb (receptor)
chain: THDLPKAVVKLEPPWIQVLKEDTVTLTCEGTHNPGNSSTQWFHNGRSIRSQVQASYTFKATVNDSGEYRCQMEQTRLSDPVDLGVISDWLLLQTPQLVFLEGETITLRCHSWRNKLLNRISFFHNEKSVRYHHYSSNFSIPKANHSHSGDYYCKGSLGRTLHQSKPVTITVQGPKSSRSLP
modifications: soluble ectodomain by convention (UniProt topology); tag not stated
Consider B3, for which the Kd in assay [1] was 130 nM; in assay [2], 490 nM; in assay [3], 46000 nM.

The record behind these values is paper PMC8111768 (Immunity, 2021).
